Measurements: patent US7285654

Tested on: T1, GST-IκBβ (1-54)
T1 sequence: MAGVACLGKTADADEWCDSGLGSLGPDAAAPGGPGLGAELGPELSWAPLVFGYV

IKK signalsome (stimulus-inducible IκB kinase complex) immunopurified from TNFα-stimulated HeLa cells
phosphorylation of substrate (kinase assay): the kinase phosphorylated GST-IκBβ (1-54), albeit with lower affinity
